The assay deals with T1, Ebola VP40 (1-326) (Ebola virus (EBOV), UniProt Q05128 1-326).
T1 sequence: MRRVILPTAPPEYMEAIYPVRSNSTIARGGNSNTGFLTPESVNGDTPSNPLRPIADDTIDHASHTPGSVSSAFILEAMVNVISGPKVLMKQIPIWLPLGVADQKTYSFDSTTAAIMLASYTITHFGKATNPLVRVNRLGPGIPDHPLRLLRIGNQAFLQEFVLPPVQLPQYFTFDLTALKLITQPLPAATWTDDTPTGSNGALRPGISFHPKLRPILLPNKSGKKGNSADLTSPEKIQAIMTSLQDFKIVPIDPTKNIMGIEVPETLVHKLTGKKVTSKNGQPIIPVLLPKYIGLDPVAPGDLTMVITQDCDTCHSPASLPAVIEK
Description: co-immunoprecipitation with anti-Myc antibody from transfected 293T cells.

B1: Myc tagged TSG101 truncated at position 140 (other)
chain: MAVSESQLKKMVSKYKYRDLTVRETVNVITLYKDLKPVLDSYVFNDGSSRELMNLTGTIPVPYRGNTYNIPICLWLLDTYPYNPPICFVKPTSSMTIKTGKHVDANGKIYLPYLHEWKHPQSDLLGLIQVMIVVFGDEPP
With B1, the binding result is “no binding”.

These data come from patent US20040223972A1 (FUNCTIONAL GENETICS, published 2004).
